The supplement of paper PMC11136658

Test system: peptide library, one residue held at a place counted from the Y acceptor
Assay: relative phosphorylation of the sub-library (ratio to the mean residue at this position); higher = residue favoured
Procedure, shortened: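 Within 384-well plates, purified recombinant kinases phosphorylated biotinylated Tyr-centred peptide library mixtures over 90 min using 50 μM ATP spiked with γ-32P-ATP; each mixture fixed one residue at one position from −5 to +5. Streptavidin membrane capture, rinsing, phosphorimaging and ImageQuant gave the intensities. These were normalized per position to the sum of the 18 randomized residues (16 for the Ser/Thr-free library) and multiplied by that number.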

MKK4, construct: aa34-end, human, sequence (P45985 34-399, looked up): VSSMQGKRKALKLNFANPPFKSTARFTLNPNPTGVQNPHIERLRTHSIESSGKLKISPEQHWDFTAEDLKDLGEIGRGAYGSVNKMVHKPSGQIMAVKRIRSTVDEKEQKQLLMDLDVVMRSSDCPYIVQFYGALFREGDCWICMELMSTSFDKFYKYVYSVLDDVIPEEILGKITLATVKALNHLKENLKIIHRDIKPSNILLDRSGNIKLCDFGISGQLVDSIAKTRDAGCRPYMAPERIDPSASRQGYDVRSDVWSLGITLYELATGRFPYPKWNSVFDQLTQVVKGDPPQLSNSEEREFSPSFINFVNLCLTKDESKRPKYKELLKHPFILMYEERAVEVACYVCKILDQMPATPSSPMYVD

MKK4, construct: aa34-end, human (from UniProt P45985)
relative phosphorylation
Conditions	at +1	at +2	at +3	at +4	at +5	at -1	at -2	at -3	at -4	at -5
A fixed	1.14	0.979	0.996	1.06	0.902	0.986	1.01	0.916	1.11	1.06
D fixed	1.32	1.29	1.03	1.2	1.02	1.49	1.18	0.991	1.09	0.992
E fixed	1.26	1.05	1.16	1.05	1.18	1.2	1.17	0.898	1.09	1.06
F fixed	0.867	1.1	1.08	1.12	1.13	0.844	1.06	1.05	1.06	1.17
G fixed	1.49	1.25	1.12	1.15	1.18	1.58	1.02	0.961	1.2	1.18
H fixed	0.87	0.959	0.981	1.22	1.04	0.866	0.994	1.01	1	1.11
I fixed	0.748	0.79	0.796	0.795	0.79	0.898	0.72	0.833	0.785	0.884
K fixed	0.786	0.846	0.923	0.837	0.909	0.638	1.09	1.07	0.878	0.915
L fixed	0.892	0.859	0.806	0.855	0.941	1.03	0.974	0.991	0.905	0.905
M fixed	1.05	0.907	0.949	0.904	0.88	1.11	0.922	0.934	0.918	0.873
N fixed	0.957	1.03	0.898	0.844	0.9	0.905	0.983	0.939	0.86	0.984
P fixed	1.11	1.32	1.34	1.37	1.22	1.04	1.05	0.928	1.08	1.09
Q fixed	0.87	0.893	0.854	0.753	0.858	0.885	0.856	1.04	0.977	0.902
R fixed	0.865	0.941	0.977	0.907	1.05	0.771	0.958	1.41	1.02	0.97
V fixed	0.775	0.779	0.826	0.761	0.775	0.694	0.792	0.736	0.771	0.713
W fixed	0.999	1.02	1.27	1.18	1.21	1.06	1.21	1.28	1.24	1.2
pThr fixed	1.17	1.23	1.15	1.21	1.07	1.05	0.96	1.2	1.29	1.18
pTyr fixed	1.25	0.974	1.18	0.991	1.22	2.13	1.28	1.25	1.18	1.18

MKK6, construct: Full length, human (from UniProt P52564)
relative phosphorylation
Conditions	at +1	at +2	at +3	at +4	at +5	at -1	at -2	at -3	at -4	at -5
A fixed	0.98	0.864	0.898	0.991	0.809	1.01	0.924	1.01	1.08	1.07
D fixed	1.16	1.47	1.16	1.39	1.26	1.56	1.38	1.17	1.2	1.25
E fixed	1.18	1.32	1.29	1.24	1.3	1.41	1.31	1.03	1.18	1.22
F fixed	0.736	1.04	1.08	1.11	1.06	0.746	0.926	1.05	0.926	1.03
G fixed	1.45	0.959	0.966	1.04	1.06	1.31	0.972	0.972	1.21	1.04
H fixed	0.977	1.01	0.93	1.02	0.997	1.08	1.08	1.01	1.04	1.1
I fixed	0.66	0.709	0.711	0.742	0.819	0.643	0.668	0.746	0.718	0.798
K fixed	0.807	0.912	0.926	0.872	0.845	0.724	0.915	1.02	0.841	0.922
L fixed	0.816	0.825	0.76	0.83	0.896	0.814	0.819	0.859	0.904	0.791
M fixed	0.975	0.862	0.925	0.897	0.928	0.891	0.891	0.855	0.886	0.796
N fixed	1.11	0.973	1	0.958	1.03	1.09	1.19	1.12	0.966	1.16
P fixed	1.18	1.03	1.12	1.2	1.05	1.03	0.989	0.851	1.09	1.03
Q fixed	1.02	0.887	0.978	0.934	1.08	1.11	1.01	1.25	1.07	1.01
R fixed	1.05	0.781	0.921	0.867	0.93	0.76	0.866	1.19	0.955	0.928
V fixed	0.738	0.797	0.832	0.736	0.792	0.569	0.691	0.746	0.817	0.778
W fixed	1.15	1.55	1.52	1.17	1.14	1.25	1.36	1.12	1.12	1.08
pThr fixed	1.51	1.74	1.23	1.52	1.24	1.39	1.11	1.57	1.29	1.34
pTyr fixed	1.13	1.18	1.3	1.36	1.41	1.85	1.21	1.33	1.1	1.26
